Where no end group is shown, it is not given here. Ahx = NCCCCCC(=O)O
Tests used:
[1] = target: T1, carboxy-terminus of Hsp70 interacting protein (CHIP), recombinant (human, UniProt Q9UNE7 1-303); assay: fluorescence polarisation
T1 sequence: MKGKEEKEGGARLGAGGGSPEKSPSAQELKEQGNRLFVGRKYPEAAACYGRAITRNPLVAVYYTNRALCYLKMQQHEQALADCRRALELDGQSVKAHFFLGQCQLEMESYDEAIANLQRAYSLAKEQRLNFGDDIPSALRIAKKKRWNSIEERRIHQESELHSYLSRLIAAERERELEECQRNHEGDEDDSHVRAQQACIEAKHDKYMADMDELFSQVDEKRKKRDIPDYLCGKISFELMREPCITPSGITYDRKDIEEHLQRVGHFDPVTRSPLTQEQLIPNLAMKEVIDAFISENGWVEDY

[2] = target: T2, Human CHIP(21-154)-TPR domain (human, UniProt Q9UNE7 21-154); assay: crystal structure
T2 sequence: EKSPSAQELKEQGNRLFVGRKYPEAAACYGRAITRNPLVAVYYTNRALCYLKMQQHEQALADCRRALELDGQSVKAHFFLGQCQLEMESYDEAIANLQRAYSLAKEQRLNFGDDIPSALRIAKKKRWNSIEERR

Binder	binding result [1]	other results
{FAM-Ahx}-IEEVD [Hsp70 C-terminal tracer (FAM-Ahx-IEEVD)]	binds	–
{FAM-Ahx}-IFRPD [labeled CHIC2 peptide (FAM-Ahx-IFRPD)]	–	Kd [1]: 148 ± 6 nM
Ac-LPKTPIFRPD [CHIC2 C-terminal 10-mer peptide Ac-LPKTPIFRPD]	binds	–
LWWPD (not fully specified (N-terminus); printed as FITC-Ahx-LWWPD) [CHIPOpt tracer (FITC-Ahx-LWWPD)]	binds	–
EFLPKTPIFRPD [HsCHIC2(154-165)-c-term peptide]	–	binding result [2]: binds
{FAM-Ahx}-IWWPD [IWWPD tracer]	binds	–

From publication doi:10.1101/2023.07.17.549407 (bioRxiv, 2023)
